Publication PMC7726095 (Current biology : CB, 2020)

Biological target: APC-B (APC Basic domain, residues 2167-2674), without SNAP (human, UniProt P25054 2167-2674)
Experiment: other fluorescence titration

- IC50: ~0.3 µM
B1: EB1 (full-length, untagged, unlabeled) (natural protein, human, UniProt Q15691 1-268, looked up)
chain: MAVNVYSTSVTSDNLSRHDMLAWINESLQLNLTKIEQLCSGAAYCQFMDMLFPGSIALKKVKFQAKLEHEYIQNFKILQAGFKRMGVDKIIPVDKLVKGKFQDNFEFVQWFKKFFDANYDGKDYDPVAARQGQETAVAPSLVAPALNKPKKPLTSSSAAPQRPISTQRTAAAPKAGPGVVRKNPGVGNGDDEAAELMQQVNVLKLTVEDLEKERDFYFGKLRNIELICQENEGENDPVLQRIVDILYATDEGFVIPDEGGPQEEQEEY
